# In patent publication EP4663654A1 (Hangzhou Sciwind Biosciences Co., Ltd., dated 2025):
# Starred links: 1 amine or outer side, 2 acyl side, 3 side chain; linkers in the order of their positions; H or OH if unused. Non-standard residues stand in square brackets, D forms with d. Primed or numbered codes have the meaning given here. *: point of attachment. C20 diacid = O=C(O)CCCCCCCCCCCCCCCCCCC(=O)*; γGlu = O=C(O)[C@H](CCC(=O)[*:2])N[*:1]; βAsp = O=C(O)[C@H](CC(=O)[*:2])N[*:1]; Hyp = O=C(O)[C@@H]1C[C@@H](O)CN1; Inp′ = not defined here; Trx′ = not defined here; AEEA = NCCOCCOCC(=O)O
# T1: human amylin receptor (AMY3) on CHO-K1/Ga15/AMY3 amylin receptor/CRE-luc cells (human, UniProt P30988 25-474; O60896 24-148)
# T1 sequence (looked up) 1: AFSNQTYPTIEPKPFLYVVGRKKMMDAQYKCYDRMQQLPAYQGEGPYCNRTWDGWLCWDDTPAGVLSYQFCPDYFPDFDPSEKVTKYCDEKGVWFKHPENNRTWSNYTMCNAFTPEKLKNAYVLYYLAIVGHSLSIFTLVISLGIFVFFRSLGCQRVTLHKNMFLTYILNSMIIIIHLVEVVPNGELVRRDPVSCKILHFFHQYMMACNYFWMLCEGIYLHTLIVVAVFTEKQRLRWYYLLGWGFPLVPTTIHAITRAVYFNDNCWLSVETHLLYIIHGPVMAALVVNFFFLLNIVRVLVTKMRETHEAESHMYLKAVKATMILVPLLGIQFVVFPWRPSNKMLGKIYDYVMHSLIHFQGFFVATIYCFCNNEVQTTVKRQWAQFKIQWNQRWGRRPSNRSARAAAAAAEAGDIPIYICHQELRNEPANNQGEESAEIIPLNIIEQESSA
# T1 sequence (looked up) 2: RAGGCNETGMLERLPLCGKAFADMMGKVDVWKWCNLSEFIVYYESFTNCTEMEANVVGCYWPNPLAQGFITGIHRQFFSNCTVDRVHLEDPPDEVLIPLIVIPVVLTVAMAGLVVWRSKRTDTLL
# Target: T1, human amylin receptor (AMY3) on …
# Assay: cell-based or functional assay
Binder,"EC50/nM, CRE-luciferase reporter in amylin receptor/CRE-luc CHO cells",Relative activity (the EC50 ratio of Cagrilintide to the compound)
{C20 diacid-γGlu}-ASQLSTAVTQRLADFLRHFTDRDRDILPPTNVGSNTP-NH2 (SMILES CC[C@H](C)[C@H](NC(=O)[C@H](CC(=O)O)NC(=O)[C@H](CCCNC(=N)N)NC(=O)[C@H](CC(=O)O)NC(=O)[C@H](CCCNC(=N)N)NC(=O)[C@H](CC(=O)O)NC(=O)[C@@H](NC(=O)[C@H](Cc1ccccc1)NC(=O)[C@H](Cc1c[nH]cn1)NC(=O)[C@H](CCCNC(=N)N)NC(=O)[C@H](CC(C)C)NC(=O)[C@H](Cc1ccccc1)NC(=O)[C@H](CC(=O)O)NC(=O)[C@H](C)NC(=O)[C@H](CC(C)C)NC(=O)[C@H](CCCNC(=N)N)NC(=O)[C@H](CCC(N)=O)NC(=O)[C@@H](NC(=O)[C@@H](NC(=O)[C@H](C)NC(=O)[C@@H](NC(=O)[C@H](CO)NC(=O)[C@H](CC(C)C)NC(=O)[C@H](CCC(N)=O)NC(=O)[C@H](CO)NC(=O)[C@H](C)NC(=O)CC[C@H](NC(=O)CCCCCCCCCCCCCCCCCCC(=O)O)C(=O)O)[C@@H](C)O)C(C)C)[C@@H](C)O)[C@@H](C)O)C(=O)N[C@@H](CC(C)C)C(=O)N1CCC[C@H]1C(=O)N1CCC[C@H]1C(=O)N[C@H](C(=O)N[C@@H](CC(N)=O)C(=O)N[C@H](C(=O)NCC(=O)N[C@@H](CO)C(=O)N[C@@H](CC(N)=O)C(=O)N[C@H](C(=O)N1CCC[C@H]1C(N)=O)[C@@H](C)O)C(C)C)[C@@H](C)O) [polypeptide derivative M8],0.049 nM,53%
{C20 diacid-γGlu}-ASQLSTAVLQRLADFLRHSSNNLKPILPPTNVGSNT[Hyp]-NH2 (SMILES CC[C@H](C)[C@H](NC(=O)[C@@H]1CCCN1C(=O)[C@H](CCCCN)NC(=O)[C@H](CC(C)C)NC(=O)[C@H](CC(N)=O)NC(=O)[C@H](CC(N)=O)NC(=O)[C@H](CO)NC(=O)[C@H](CO)NC(=O)[C@H](Cc1c[nH]cn1)NC(=O)[C@H](CCCNC(=N)N)NC(=O)[C@H](CC(C)C)NC(=O)[C@H](Cc1ccccc1)NC(=O)[C@H](CC(=O)O)NC(=O)[C@H](C)NC(=O)[C@H](CC(C)C)NC(=O)[C@H](CCCNC(=N)N)NC(=O)[C@H](CCC(N)=O)NC(=O)[C@H](CC(C)C)NC(=O)[C@@H](NC(=O)[C@H](C)NC(=O)[C@@H](NC(=O)[C@H](CO)NC(=O)[C@H](CC(C)C)NC(=O)[C@H](CCC(N)=O)NC(=O)[C@H](CO)NC(=O)[C@H](C)NC(=O)CC[C@H](NC(=O)CCCCCCCCCCCCCCCCCCC(=O)O)C(=O)O)[C@@H](C)O)C(C)C)C(=O)N[C@@H](CC(C)C)C(=O)N1CCC[C@H]1C(=O)N1CCC[C@H]1C(=O)N[C@H](C(=O)N[C@@H](CC(N)=O)C(=O)N[C@H](C(=O)NCC(=O)N[C@@H](CO)C(=O)N[C@@H](CC(N)=O)C(=O)N[C@H](C(=O)N1C[C@H](O)C[C@H]1C(N)=O)[C@@H](C)O)C(C)C)[C@@H](C)O) [polypeptide derivative M9],0.026 nM,100%
{C20 diacid}-EASQLSTAATQRLADFLRHFTDRDRDILPPTNVGSNTP-NH2 (SMILES CC[C@H](C)[C@H](NC(=O)[C@H](CC(=O)O)NC(=O)[C@H](CCCNC(=N)N)NC(=O)[C@H](CC(=O)O)NC(=O)[C@H](CCCNC(=N)N)NC(=O)[C@H](CC(=O)O)NC(=O)[C@@H](NC(=O)[C@H](Cc1ccccc1)NC(=O)[C@H](Cc1c[nH]cn1)NC(=O)[C@H](CCCNC(=N)N)NC(=O)[C@H](CC(C)C)NC(=O)[C@H](Cc1ccccc1)NC(=O)[C@H](CC(=O)O)NC(=O)[C@H](C)NC(=O)[C@H](CC(C)C)NC(=O)[C@H](CCCNC(=N)N)NC(=O)[C@H](CCC(N)=O)NC(=O)[C@@H](NC(=O)[C@H](C)NC(=O)[C@H](C)NC(=O)[C@@H](NC(=O)[C@H](CO)NC(=O)[C@H](CC(C)C)NC(=O)[C@H](CCC(N)=O)NC(=O)[C@H](CO)NC(=O)[C@H](C)NC(=O)[C@H](CCC(=O)O)NC(=O)CCCCCCCCCCCCCCCCCCC(=O)O)[C@@H](C)O)[C@@H](C)O)[C@@H](C)O)C(=O)N[C@@H](CC(C)C)C(=O)N1CCC[C@H]1C(=O)N1CCC[C@H]1C(=O)N[C@H](C(=O)N[C@@H](CC(N)=O)C(=O)N[C@H](C(=O)NCC(=O)N[C@@H](CO)C(=O)N[C@@H](CC(N)=O)C(=O)N[C@H](C(=O)N1CCC[C@H]1C(N)=O)[C@@H](C)O)C(C)C)[C@@H](C)O) [polypeptide derivative M11],0.004 nM,110%
{C20 diacid-βAsp}-ASQLSTAATQRLADFLRHFTDRDRDILPPTNVGSNTP-NH2 (SMILES CC[C@H](C)[C@H](NC(=O)[C@H](CC(=O)O)NC(=O)[C@H](CCCNC(=N)N)NC(=O)[C@H](CC(=O)O)NC(=O)[C@H](CCCNC(=N)N)NC(=O)[C@H](CC(=O)O)NC(=O)[C@@H](NC(=O)[C@H](Cc1ccccc1)NC(=O)[C@H](Cc1c[nH]cn1)NC(=O)[C@H](CCCNC(=N)N)NC(=O)[C@H](CC(C)C)NC(=O)[C@H](Cc1ccccc1)NC(=O)[C@H](CC(=O)O)NC(=O)[C@H](C)NC(=O)[C@H](CC(C)C)NC(=O)[C@H](CCCNC(=N)N)NC(=O)[C@H](CCC(N)=O)NC(=O)[C@@H](NC(=O)[C@H](C)NC(=O)[C@H](C)NC(=O)[C@@H](NC(=O)[C@H](CO)NC(=O)[C@H](CC(C)C)NC(=O)[C@H](CCC(N)=O)NC(=O)[C@H](CO)NC(=O)[C@H](C)NC(=O)C[C@H](NC(=O)CCCCCCCCCCCCCCCCCCC(=O)O)C(=O)O)[C@@H](C)O)[C@@H](C)O)[C@@H](C)O)C(=O)N[C@@H](CC(C)C)C(=O)N1CCC[C@H]1C(=O)N1CCC[C@H]1C(=O)N[C@H](C(=O)N[C@@H](CC(N)=O)C(=O)N[C@H](C(=O)NCC(=O)N[C@@H](CO)C(=O)N[C@@H](CC(N)=O)C(=O)N[C@H](C(=O)N1CCC[C@H]1C(N)=O)[C@@H](C)O)C(C)C)[C@@H](C)O) [polypeptide derivative M12],0.034 nM,78%
{C20 diacid}-DASQLSTAATQRLADFLRHFTDRDRDILPPTNVGSNTP-NH2 (SMILES CC[C@H](C)[C@H](NC(=O)[C@H](CC(=O)O)NC(=O)[C@H](CCCNC(=N)N)NC(=O)[C@H](CC(=O)O)NC(=O)[C@H](CCCNC(=N)N)NC(=O)[C@H](CC(=O)O)NC(=O)[C@@H](NC(=O)[C@H](Cc1ccccc1)NC(=O)[C@H](Cc1c[nH]cn1)NC(=O)[C@H](CCCNC(=N)N)NC(=O)[C@H](CC(C)C)NC(=O)[C@H](Cc1ccccc1)NC(=O)[C@H](CC(=O)O)NC(=O)[C@H](C)NC(=O)[C@H](CC(C)C)NC(=O)[C@H](CCCNC(=N)N)NC(=O)[C@H](CCC(N)=O)NC(=O)[C@@H](NC(=O)[C@H](C)NC(=O)[C@H](C)NC(=O)[C@@H](NC(=O)[C@H](CO)NC(=O)[C@H](CC(C)C)NC(=O)[C@H](CCC(N)=O)NC(=O)[C@H](CO)NC(=O)[C@H](C)NC(=O)[C@H](CC(=O)O)NC(=O)CCCCCCCCCCCCCCCCCCC(=O)O)[C@@H](C)O)[C@@H](C)O)[C@@H](C)O)C(=O)N[C@@H](CC(C)C)C(=O)N1CCC[C@H]1C(=O)N1CCC[C@H]1C(=O)N[C@H](C(=O)N[C@@H](CC(N)=O)C(=O)N[C@H](C(=O)NCC(=O)N[C@@H](CO)C(=O)N[C@@H](CC(N)=O)C(=O)N[C@H](C(=O)N1CCC[C@H]1C(N)=O)[C@@H](C)O)C(C)C)[C@@H](C)O) [polypeptide derivative M13],0.034 nM,78%
{C20 diacid-Trx′}-ASQLSTAATQRLADFLRHFTDRDRDILPPTNVGSNTP-NH2 (reading uncertain) [polypeptide derivative M14],0.018 nM,136%
{C20 diacid-Inp′}-ASQLSTAATQRLADFLRHFTDRDRDILPPTNVGSNTP-NH2 [polypeptide derivative M15],0.03 nM,81%
{C20 diacid-γGlu-AEEA-AEEA}-ASQLSTAATQRLADFLRHFTDRDRDILPPTNVGSNTP-NH2 (SMILES CC[C@H](C)[C@H](NC(=O)[C@H](CC(=O)O)NC(=O)[C@H](CCCNC(=N)N)NC(=O)[C@H](CC(=O)O)NC(=O)[C@H](CCCNC(=N)N)NC(=O)[C@H](CC(=O)O)NC(=O)[C@@H](NC(=O)[C@H](Cc1ccccc1)NC(=O)[C@H](Cc1c[nH]cn1)NC(=O)[C@H](CCCNC(=N)N)NC(=O)[C@H](CC(C)C)NC(=O)[C@H](Cc1ccccc1)NC(=O)[C@H](CC(=O)O)NC(=O)[C@H](C)NC(=O)[C@H](CC(C)C)NC(=O)[C@H](CCCNC(=N)N)NC(=O)[C@H](CCC(N)=O)NC(=O)[C@@H](NC(=O)[C@H](C)NC(=O)[C@H](C)NC(=O)[C@@H](NC(=O)[C@H](CO)NC(=O)[C@H](CC(C)C)NC(=O)[C@H](CCC(N)=O)NC(=O)[C@H](CO)NC(=O)[C@H](C)NC(=O)COCCOCCNC(=O)COCCOCCNC(=O)CC[C@H](NC(=O)CCCCCCCCCCCCCCCCCCC(=O)O)C(=O)O)[C@@H](C)O)[C@@H](C)O)[C@@H](C)O)C(=O)N[C@@H](CC(C)C)C(=O)N1CCC[C@H]1C(=O)N1CCC[C@H]1C(=O)N[C@H](C(=O)N[C@@H](CC(N)=O)C(=O)N[C@H](C(=O)NCC(=O)N[C@@H](CO)C(=O)N[C@@H](CC(N)=O)C(=O)N[C@H](C(=O)N1CCC[C@H]1C(N)=O)[C@@H](C)O)C(C)C)[C@@H](C)O) [polypeptide derivative M16],0.042 nM,58%
